{"source": "patent EP4763867A1", "about": "(Shanghai Mabgen Biotech Ltd., dated 2026)", "binders": {"B1": {"name": "A17m0902_hIgG4 (antibody, V domains shown)", "VH": "EVQLVESGGGLVQPGGSLRLSCAASGLTFSDYSMSWYRQAPGKGRELVAIISGSGVITHYVDSVKGRFTISRDNAKNTLYLQMRSLRAEDTAVYYCRAVSDWEDYWGQGTQVTVSS"}, "B2": {"name": "A17_hIgG4 (antibody, V domains shown)", "VH": "EVQVVESGGGLVQPGGSLRLSCVASGLTFSDYSMSWYRQAPGKERELVAIISGSGVIAHYVDSVKGRFTISRDNAKSTVYLQMVSLKPEDRGVYYCRAVSDWDDYWGQGTQVTVSS"}, "B3": {"name": "A17 (VHH)", "VHH": "B2 VH", "notes": "also called Variable region of A17"}, "B4": {"name": "PEGylated IL-2 mutant (PEG-IL-2v) (ligand)", "chain": "APASSSTKKTQLQLEHLLLDLQMILQGISNYKNPKLTRMLTAKFYMPKKATELKHLQCLEEELKPLEEVLQGAQSKNFHLRPRDLISNINVIVLELKGSETTFMCEYADETATIVEFLNRWITFAQSIISTLT", "modifications": "PEGylated (site and PEG not stated)"}}, "key": {"[1]": {"target": "T1, human PD-1 (SEQ ID NO: 1) expressed on cells (human, UniProt Q15116 25-288)", "T1 sequence (Q15116 25-288 limits assumed)": "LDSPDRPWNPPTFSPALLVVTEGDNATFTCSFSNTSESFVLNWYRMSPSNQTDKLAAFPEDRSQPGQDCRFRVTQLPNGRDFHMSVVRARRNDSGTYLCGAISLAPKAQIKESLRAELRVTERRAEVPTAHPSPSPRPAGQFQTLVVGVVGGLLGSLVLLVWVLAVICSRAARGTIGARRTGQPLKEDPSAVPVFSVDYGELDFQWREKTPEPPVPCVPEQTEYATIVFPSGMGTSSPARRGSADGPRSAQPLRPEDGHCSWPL", "assay": "cell-based or functional assay"}, "[2]": {"target": "T1, human PD-1 (SEQ ID NO: 1) expressed on …", "assay": "cell-based or functional assay", "remark": "listed apart in the source"}, "[3]": {"target": "T2, Biotinylated human PD-1 (AcroBiosystems, PD1-H82E4) (human, UniProt Q15116 25-167, biotinylated (site not stated))", "T2 construct": "Screening antigen of the yeast display library; also called human PD-1 antigen (screening antigen)", "T2 sequence (Q15116 25-167 limits assumed)": "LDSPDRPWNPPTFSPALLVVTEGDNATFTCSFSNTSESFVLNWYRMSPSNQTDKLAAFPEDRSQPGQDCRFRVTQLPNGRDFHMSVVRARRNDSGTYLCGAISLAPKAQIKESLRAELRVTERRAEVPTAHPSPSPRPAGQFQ", "assay": "screening of a VHH yeast display library with biotinylated antigens"}, "[4]": {"target": "T3, IL-2Rβ and IL-2Rγ on M07e cells (moderate-avidity IL-2 receptor IL-2Rβγ) (human, UniProt P14784 27-551; P31785 23-369)", "T3 sequence (looked up) 1": "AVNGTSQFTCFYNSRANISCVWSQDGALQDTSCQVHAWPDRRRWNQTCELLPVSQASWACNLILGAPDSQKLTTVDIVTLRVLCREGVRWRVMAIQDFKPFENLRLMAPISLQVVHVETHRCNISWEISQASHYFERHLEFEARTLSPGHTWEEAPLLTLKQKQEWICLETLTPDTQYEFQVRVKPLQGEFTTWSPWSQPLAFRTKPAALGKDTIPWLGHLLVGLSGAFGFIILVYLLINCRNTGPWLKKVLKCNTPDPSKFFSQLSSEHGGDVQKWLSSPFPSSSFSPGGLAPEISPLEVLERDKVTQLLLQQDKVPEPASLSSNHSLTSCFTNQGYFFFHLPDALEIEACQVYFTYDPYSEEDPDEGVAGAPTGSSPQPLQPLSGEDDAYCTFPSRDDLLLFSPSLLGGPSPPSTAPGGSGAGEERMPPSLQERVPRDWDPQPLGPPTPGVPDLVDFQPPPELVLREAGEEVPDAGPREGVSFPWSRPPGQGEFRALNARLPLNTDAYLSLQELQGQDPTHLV", "T3 sequence (looked up) 2": "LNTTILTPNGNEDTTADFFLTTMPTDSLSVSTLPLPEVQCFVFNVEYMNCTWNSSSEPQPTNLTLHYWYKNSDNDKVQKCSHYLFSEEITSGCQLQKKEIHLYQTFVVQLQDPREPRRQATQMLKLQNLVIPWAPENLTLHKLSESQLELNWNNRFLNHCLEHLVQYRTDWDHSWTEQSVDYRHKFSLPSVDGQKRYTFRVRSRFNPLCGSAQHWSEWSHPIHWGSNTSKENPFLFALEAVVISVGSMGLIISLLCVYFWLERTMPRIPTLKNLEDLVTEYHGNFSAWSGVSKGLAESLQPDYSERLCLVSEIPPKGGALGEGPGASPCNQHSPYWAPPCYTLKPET", "assay": "cell-based or functional assay"}}, "note": "Read-outs that look alike come from different tables or passages of the source.", "data": [{"binder": "B1", "values": [{"measurement": "activity IC50, PD-1/PD-L1 NFAT reporter gene system", "setting": "[1]", "result": 0.435, "unit": "nM"}]}, {"binder": "B2", "values": [{"measurement": "activity IC50, PD-1/PD-L1 NFAT reporter gene system", "setting": "[2]", "result": 1.2, "unit": "nM"}]}, {"binder": "B3", "values": [{"measurement": "binding result", "setting": "[3]", "result": "binds"}]}, {"binder": "B4", "values": [{"measurement": "M07e proliferation, EC50", "setting": "[4]", "result": 20.9, "unit": "nM"}, {"measurement": "M07e-hPD1 proliferation, EC50", "setting": "[4]", "result": 13.3, "unit": "nM"}]}]}
